Consider two substances from patent publication US6669963B1, “Stable particle in liquid formulations” (Elan Drug Delivery Limited, priority 1997, dated 2003).

Series [1] in a line: Storage stability of EPO preparations, residual EPO by Quantikine IVD EPO-specific immunoassay. In kind it is physicochemical. The note with it: within one day. The procedure: Freeze dried EPO was re-hydrated and diluted 100 fold with a buffer of the following composition:
and dried in a spray dryer as above. The powder was weighed into 125 mg aliquots and subjected to secondary drying at a temperature ramping from 40° C. to 80° C. at a rate of 15 degrees per hour under vacuum and then either sealed in a serum vial or re-suspended in 0.5 ml of mineral oil BP and sealed. They were then stored at 37° C. or 55° C. for up to 15 days. At the end of the storage period, residual EPO was extracted into phosphate buffered saline containing 0.01% BSA as above and the amount remaining in the extract was measured using a Quantikine IVD EPO-specific immunoassay (RD Systems Inc).

Series [2] concerns phage lambda DNA. Briefly: Storage stability of EcoR1 preparations, residual titre by complete cutting of DNA. In kind it is physicochemical. The protocol: Restriction enzymes are customarily stored in freezers at −20° C. in buffers containing 50% glycerol to prevent ice formation. Even under these conditions some of them have a limited storage life and need to be replaced at intervals. Several enzymes were dried using the technique of the present invention with similar results. The data with one enzyme, EcoR1, is illustrated. The enzyme solution was diluted 100 fold in SC buffer (Colaco C. A. L. S., Sen S., Thangavelu M., Pinder S. and Roser B. “Extraordinary stability of enzymes dried in trehalose: Simplified molecular biology.” Biotechnol. 10 1007-1011 (1992)). The dried enzyme was produced in the spray dryer as above, sealed in vials with or without oil and its stability was compared with fresh liquid enzyme diluted in cutting buffer at three storage temperatures 4° C., 37° C. and 55° C. To determine residual activity after storage, the enzyme was recovered into the acueous phase as described earlier, diluted with SC buffer in a 2-fold dilution series and used to cut 0.5 μg of phage lambda DNA (Life Technologies Inc). The completeness of cutting at various dilutions was assessed by separating the DNA fragments by agarose gel electrophoresis in which the bands were visualised under UV light by ethidium bromide staining.

For “fresh EPO: Recombinant Human Erythropoietin, not dried in trehalose”, the loss of activity in series [1] (37° C.) was 88%; in series [1] (55° C.) it was more than 95%.

“fresh enzyme: Restriction Endonuclease EcoR1, fresh liquid enzyme diluted in cutting buffer”: the activity on storage result was “stable” in series [2] (4° C., over 28 days) and “lost essentially all activity” in series [2] (37° C., by 28 days). In addition, in series [2] (55° C.), the “time to completely inactive” value is listed as not above 7 days.
